Source: the DeepSol protein solubility set

Assay: soluble on expression in E. coli; label from the status in PepcDB or PDB records

Sequence | soluble on expression in E. coli
SMFEIKKICCIGAGYVGGPTCSVIAHMCPEIRVTVVDVNESRINAWNSPTLPIYEPGLKEVVESCRGKNLFFSTNIDDAIKEADLVFISVNTPTKTYGMGKGRAADLKYIEACARRIVQNSNGYKIVTEKSAVPVRAAESIRRIFDANTKPNLNLQVLSNPEFLAEGTAIKDLKNPDRVLIGGDETPEGQRAVQALCAVYEHWVPREKILTTNTWSSELSKLAANAFLAQRISSINSISALCEATGADVEEVATAIGMDQRIGNKFLKASVGFGGSCFQKDVLNLVYLCEALNLPEVARYWQQVIDMNDYQRRRFASRIIDSLFNTVTDKKIAILGFAFKKDTGDTRESSSIYISKYLMDEGAHLHIYDPKVPREQIVVDLSHPGVSEDDQVSRLVTISKDPYEACDGAHAVVICTEWDMFKELDYERIHKKMLKPAFIFDGRRVLDGLHNELQTIGFQIETIGKKV | soluble
GPGSMWAQQLSLQKQTTKISPADKDAQALITANVFIEGNRMRVLKSMEQYQAVADSAYWNYGYMGGSMVTTMAICLSLSGRLPLLQRYASWISLAGGYFGGKAALGIHNARNLSHVVNTIDSAIVETRKMDEQYNFKIPDYAREVEALQRRKFELLPTSAEAIEARKNDLNNMPLDEKVDALVEAYEKRRQAVGKE | not soluble
MGSDKIHHHHHHMSNISEIVVELFKEASIYLPDDVKSKLKHAEEVECGACKDTLQAIELNNKIAETKQIPLCQDTGVPVIFLKIGTGISSERIIEIIKEIESGVKRATAEVPLRPNVVNPITRENLGTNTGMGAPFINFEFSENLNNEIEISVFPKGAGSENMSALKMLTPSEGLMGIKKFILETVANAGGKPCPPIVLGIGIGGTADISLKLAKKALLRDIGNRNPEKTIENLEKELLDSINQLGIGTMGLGGKITALDVFIEVNGCHTASLPVGICIQCWADRKAKRKIKL | not soluble
MNQGEIVYQDDDDYYDESEIYDNYEEGAEFIEVNGQLVPHNPAQQNRPGTSSMIQQHNRSMEVNQGLVKDEPIDTSSHRVYVPPPRPVQRKPGPSTPGSSQYTVRNLSNLSGSPSMYDRQPASLPRTVQPMGLEMGNSEQRKVYIDMKDHVSHIRLKTKKKVFAPGQRKPCNCTKSQCLKLYCDCFANGEFCRDCNCKDCHNNIEYDSQRSKAIRQSLERNPNAFKPKIGIARGGITDIERLHQKGCHCKKSGCLKNYCECYEAKVPCTDRCKCKGCQNTETYRMTRYKNSGGAVSNTNALMSLTNASSTATPDSGPGSVVTDEHGDDYEDMLLSHKPKVEMDPRRFPWYYMTDEVVEAATMCMVAQAEEALNYEKVQTEDEKLINMEKLVLREFGRCLEQMITNTTELTQDLDAAPTDDIPGPSTSTS | not soluble
QYCWQHRFPTGYFSICDRYMNGTCPEGNSCKFAHGNAELHEWEERRDALKMKLNKA | soluble
MGSDKIHHHHHHARRNSTSRGSDSAARSPPSIRASHLKHCCFPIKEPTMSTINYSEKIPNNVNLADDRTLQRALEQWQPNFLSWWGDMGPDGSHGYDVYLRTAVSVDAGGWAHFDHVKMPDYRWGIFLTPGEQDRKIQFGEHKGEAAWQDVPGEHRANLRRIIVTQGDTEPASVEQQRHLGLTAPSMYDLRNLFQVNVEEGRHLWAMVYLLHRYFGRDGREEAEALLGRRSGDDDNPRILGAFNEKTPDWLAFYMFTYFTDRDGKFQLSALAESGFDPLARTTKFMLTEEAHHMFVGESGVSRVVQRTAQVMNELKTDDVNQIRAAGVIDLPTIQRYLNFHYSVTIDLFGADHSSNAATFYSSGLKGRYEETKRDDDHQLGGQSYKLLDVQDGKLVEREVPMLNAMNEVLRDDYIKDSVAGVNRWNKVLEKAGIEFRLTVPHKAFNRQIGTFAGTRVAPDGRVVSETEWAANEAKWLATPEDRAYVASLMGRVVEPGKFANWIAPPAMGINRQPIDFEYVRFN | not soluble
SNAMRMIDIIEKKRDGHTLTTEEINFFIGGYVKGDIPDYQASSLAMAIYFQDMNDDERVALTMAMVNSGDMIDLSDIKGVKVDKHSTGGVGDTTTLVLAPLVAAVDVPVAKMSGRGLGHTGGTIDKLEAIDGFHVEIDEATFVKLVNENKVAVVGQSGNLTPADKKLYALRDVTGTVNSIPLIASSIMSKKIAAGADAIVLDVKTGSGAFMKTLEDAEALAHAMVRIGNNVGRNTMAIISDMNQPLGRAIGNALELQEAIDTLKGQGPKDLTELVLTLGSQMVVLANKAETLEEARALLIEAINSGAALEKFKTFIKNQGGDETVIDHPERLPQAQYQIEYKAKKSGYVTELVSNDIGVASMMLGAGRLTKEDDIDLAVGIVLNKKIGDKVEEGESLLTIHSNRQDVDDVVKKLDSSITIADHVVSPTLIHKIITE | soluble
MQVTYKGRPIRITPDFSPETMKARRAWTDVIQTLREHKCQPRLLYPAKLSITIDGETKVFHDKTKFTQYLSTNPALQRIITEKKQYKD | soluble
MIYIGFYPKFNISGFSIGINTGVRFDVSSKLHYETSSASENINNEVKPRTYIRGTFDYSVFFKDNMAINVGLYIGYDWGFAWSDTYANADVVKNESFGNLDLGIQVGYRFGPKF | not soluble
GPGSMLTLRKQTLPVATATLLLQRRGVEYWGSSVTGRTQPYAQGDLIPRVDNMRHVVSKSSSAAANLTGSNLGVAYDSDTIFSVAGYSRAEKEHYRPLRGIARYKIEPMAESDTVAAQGLLEQAEMSKSISFVVSWWGGVLKDFPSLKKVCDDTFKEEFTSFYKSALSVAHDDAAVKALAVPFVRRQMQEHYISFPMFWRIAEKLADAIEKVPQMQKPARSVSRIAVERVTKIALNTIADEPWALDEMTSPLLFDVSNFRAWHEAGNW | not soluble
MPISELEKKWTGLTFEIAAEEMRRLKSEPTDRERLKLYALYKQALHGDIPNEDVYPVPAGDEVGRKKYAAWKSQKGANSEKCRADYVAIAEEMIKKYGRNIVRCKWNSEVWSVDY | soluble
MAFLARKTSSLLPATTSSTVKHMIYDEPHFAMQNSLAKLIKEKINPNVAQWEKSGRYPAHFVFKMLGQLGVFAVNKPVDYGGTGRDFAMSIAIAEQIGAVDCGSIPMSVMVQSDMSTPALAQFGSDSLRNRFLRPSINGDLVSSIAVSEPHAGSDVSAIRTHARRYGSDLIINGSKMWITNGDQADWACVLVNTSNAKNLHKNKSLVCIPLDSIGVHRSTPLDKLGMRSSDTVQLFFEDVRVPSSYIIGEEGRGFAYQMNQFNDERLVTVAVGLLPLQKCINETIEYARERLIFGKTLLDQQYVQFRLAELEAELEATRSLLYRTVLARCQGEDVSMLTAMAKLKIGRLARKVTDQCLQIWGGAGYLNDNGISRAFRDFRIFSIGAGCDEVMMQIIHKTQSKRQQKRI | not soluble
MAHHHHHHMGTTASTDSADSPFSVRSVDSSGGGGWRQEDPERFRKYMHLKSQADQWRQRHGHTPGATRGELTKNLIEEVYEEDFESVDHVQSMRLPPMVLKEMKDAVANEAERRCAETEKVMARCLQDKMWTSWKCQKERDALYQCVADRKEDNELLMAYRWKYNLGTFHGELIGRNNMMRRIWKEHFPDRDLPHPWVKDA | not soluble
MQKIKVQDAIGSVLMHDLTQIIPGKTKDARFRKGHVIKEEDIPTLLSMGKEHIFVWDQTPGLIHEDEAAERLAKAVAGPGLSFSETKEGKVNLIAEEDGLIYASEEGIYALNSLEYIILATLHNHRPVKKGQKIAGTRVVPLMIDENVVIEAEGIARRFEEPILQIRPLQSKKVGVVTTGSEVYHGRIQDKFGPVLQRKVAEWGSVLLGQTFADDDVEMIQERIREHIEQGAEMVLVTGGMSVDPDDLTPTAIKGLGGRVDHLWHSCSSRSHAVAGLPGLEHHHHHH | not soluble
MPYQQITVNVNDAVAERLADALMEHGALSAAIEDAYAGTQNEQAIFGEPGMPAEQIWQQSKVIALFGEHDEAAAIIQTATQECGLK | not soluble
MASMTGGQQMGRGMAGPEIVKLKKILREKAVPPGTEVPLDVMRKGMEKVAFKAADDIQVEQVTVAGCAAEWVRAPGCQAGKAILYLHGGGYVMGSINTHRSMVGEISRASQAAALLLDYRLAPEHPFPAAVEDGVAAYRWLLDQGFKPQHLSISGDSAGGGLVLAVLVSARDQGLPMPASAIPISPWADMTCTNDSFKTRAEADPMVAPGGINKMAARYLNGADAKHPYASPNFANLKGLPPLLIHVGRDEVLLDDSIKLDAKAKADGVKSTLEIWDDMIHVWHAFHPMLPEGKQAIVRVGEFMREQWAALAAALEHHHHHH | soluble
